From US20160115237A1 (UNIVERSITY OF BRITISH COLUMBIA, published 2016)

T1: human Fas receptor (FasR) on the surface of HUVEC cells (human, UniProt P25445 26-335)
T1 construct: whole, on cells; also called hTNFRSM6; hTNFR6
T1 sequence (looked up): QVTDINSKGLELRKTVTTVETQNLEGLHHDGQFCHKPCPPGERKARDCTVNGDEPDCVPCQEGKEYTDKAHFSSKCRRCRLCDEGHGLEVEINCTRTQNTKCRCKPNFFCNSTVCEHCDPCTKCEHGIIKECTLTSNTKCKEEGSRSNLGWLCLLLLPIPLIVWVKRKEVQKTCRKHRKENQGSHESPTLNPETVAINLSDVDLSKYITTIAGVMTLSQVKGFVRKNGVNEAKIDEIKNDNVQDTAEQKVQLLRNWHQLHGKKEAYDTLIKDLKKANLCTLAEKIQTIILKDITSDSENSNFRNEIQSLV


Columns and labels:
[1] = target: T1, human Fas receptor (FasR) on the …; test: flow cytometry on mitomycin C-treated senescent HUVEC cells, antibody at 40 µg/ml
[2] = target: PrP rigid loop peptide … (DSE3) (human)

| Binder | binding result [1] | Kd [2] [nM] |
| --- | --- | --- |
| antibody AMF-3a-118 (misfolded FasR antibody) (antibody, V domains shown) VH: QSVEESGGRLVTPGTPLTLTCKASGFSLSDSRVSWVRQAPGKGLEWIGIVGIGWNIYHANWAKGRFTISKTSSTTVDLKITSPTVEDTATYFCARGLGGGTVIWGPGTLVTVSL VL: AQVLTQTPASVSAAVGGTVTISCQSSESVYKNNYLSWFQQKPGQPPKLLIYEASKLASGVSTRFKGSGSGTQFTLTISGVQCDDAATYYCLGEFSCYSGDCGTFGGGTAVVVKG | binds | – |
| antibody c-120 (misfolded PrP rigid loop antibody) (antibody) heavy: QSVEESGGHLVTPGTPLTLTCTVSGIDLSTYAMGWVRQAPGKGLEWIGVITKSGNTYYASWAKGRFAISKTSTTVDLKITSPTTEDTATYFCGRYGIGVSYYDIWGPGTLVTVSSGQPKAPSVFPLAPCCGDTPSSTVTLGCLVKGYLPEPVTVTWNSGTLTNGVRTFPSVRQSSGLYSLSSVVSVTSSSQPVTCNVAHPATNTKVDKTVAPSTCSKPTCPPPELLGGPSVFIFPPKPKDTLMISRTPEVTCVVVDVSQDDPEVQFTWYINNEQVRTARPPLREQQFNSTIRVVSTLPIAHQDWLRGKEFKCKVHNKALPAPIEKTISKARGQPLEPKVYTMGPPREELSSRSVSLTCMINGFYPSDISVEWEKNGKAEDNYKTTPAVLDSDGSYFLYSKLSVPTSEWQRGDVFTCSVMHEALHNHYTQKSISRSPGK light: AQVLTQTPSPVSAAVGGTVTINCQSSQSLYNKNWLSWYQKKPGQPPKLLIYKASTLESGVSSRFKGSGSGTQFTLTISGVQCDDAATYYCQGEFSCSSADCTAFGGGTEVVVKGDPVAPTVLIFPPAADQVATGTVTIVCVANKYFPDVTVTWEVDGTTQTTGIENSKTPQNSADCTYNLSSTLTLTSTQYNSHKEYTCKVTQGTTSVVQSFNRGDC | – | 0.1 |
